From patent WO2021190480A1 (dated 2021)

Target: T1, His-tagged human TROP-2 protein (TROP-2-His), Sino Biological cat# 10428-H08H (human, UniProt P09758 27-274)
T1 construct: also called TROP-2His protein; human TROP-2His antigen; not shown: His tag
T1 sequence (looked up): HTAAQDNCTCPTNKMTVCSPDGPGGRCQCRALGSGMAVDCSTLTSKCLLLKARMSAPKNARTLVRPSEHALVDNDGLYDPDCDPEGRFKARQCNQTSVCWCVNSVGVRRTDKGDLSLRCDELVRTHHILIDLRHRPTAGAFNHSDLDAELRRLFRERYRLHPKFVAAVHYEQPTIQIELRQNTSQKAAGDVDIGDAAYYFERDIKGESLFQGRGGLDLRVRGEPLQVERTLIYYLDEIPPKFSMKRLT
Assay: indirect ELISA, TROP-2-His coated at 1 ug/ml

EC50: 0.56 nM
B1: murine monoclonal antibody M1 (antibody, V domains shown)
VH: QVQLQQPGAELVRPGASVKLSCRASGYTFTNYWMNWVKQRPEQGLEWIGRIDPNDSETHYNQKFKDRAILTVDKASNTAYMQLSGLTSEDSAVHYCARSGFGSTYWFFDVWGAGTTVTVSS
VL: DIVMTQSHKFMSTSVGDRVSITCKASQDVSTAVAWYQQKPGQSPKLLIYSASYRYTGVPDRFAGSGYGTDFTFTISSVQTEDLTVYHCQQHYSTPLTFGPGTRLELK
